From patent US20230355720A1, “PHARMACEUTICAL COMPOSITION FOR PREVENTING OR TREATING BONE DISEASES, COMPRISING TRIPLE AGONIST OR CONJUGATE THEREOF HAVING ACTIVITY WITH RESPECT TO ALL OF GLUCAGON, GLP-1 AND GLP RECEPTORS” (HANMI PHARM. CO., LTD., priority 2020, published 2023)
Bridge positions count the residues as written; N and C are the ends. Square brackets hold non-standard residues; d marks the D form. Ends that are not written are not given here. * marks the point of attachment. Acetyl(2-(4-imidazolyl)) = O=C(Cc1c[nH]cn1)*; Aib = CC(C)(N)C(=O)O

T1: human GIP receptor (human, UniProt P48546 22-466)
T1 sequence (looked up): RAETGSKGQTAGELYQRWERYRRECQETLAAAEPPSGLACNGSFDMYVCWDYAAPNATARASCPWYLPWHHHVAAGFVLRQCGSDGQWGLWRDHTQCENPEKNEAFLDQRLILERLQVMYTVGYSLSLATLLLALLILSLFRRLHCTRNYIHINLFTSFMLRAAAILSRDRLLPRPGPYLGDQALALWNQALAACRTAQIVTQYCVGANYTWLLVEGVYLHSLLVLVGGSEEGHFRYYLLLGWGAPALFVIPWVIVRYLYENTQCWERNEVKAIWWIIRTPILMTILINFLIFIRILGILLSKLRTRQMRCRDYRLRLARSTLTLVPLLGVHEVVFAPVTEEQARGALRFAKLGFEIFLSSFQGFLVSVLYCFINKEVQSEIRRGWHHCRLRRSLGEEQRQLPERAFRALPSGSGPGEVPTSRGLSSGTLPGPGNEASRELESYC


Key:
[1] = system: MC3T3-E1 osteoblasts; assay: Cell viability of MC3T3-E1 osteoblasts under fetal bovine serum deficiency; assay type: cell-based; conditions: co-treatment with conjugate (2 μM) and GIP inhibitor 0.31, 1.25, 5, 20 μM; dose-dependent manner (FIG. 5)
Protocol: MC3T3-E1 osteoblasts were dispensed into 96-well plates at 10,000 cells/well and incubated for 24 hours using a medium containing 10% fetal bovine serum. The medium in a normal group was replaced with a medium containing 10% bovine fetal serum, and the medium in each of the test groups was replaced with a medium containing no bovine fetal serum. […] The medium in each of the normal group and test groups was replaced, and after 48 hours, the cells were further incubated. Thereafter, the cell viability was analyzed using a collagen assay kit (Biocolor) according to the manufacturers instructions. The GIP inhibitor is GIP 3-30, in which the N-terminus region was absent in native GIP.

[2] = system: MC3T3-E1 osteoblasts; assay: ColA1 protein in medium of MC3T3-E1 osteoblasts (collagen assay kit); assay type: cell-based; conditions: co-treatment with GIP inhibitor (10 μM or 100 μM), 7 days (FIG. 4)
Protocol: MC3T3-E1 osteoblasts were dispensed into 12-well plates at 100,000 cells/well and incubated for 24 hours using a medium containing 10% fetal bovine serum. […] The long-acting GIP used in the present invention was prepared by the same method as in the long-acting conjugate of the triple agonist illustrated in Example 2, wherein the long-acting GIP is in a form in which immunoglobulin Fc was linked to GIP analog via PEG, and the GIP inhibitor is GIP 3-30, in which the N-terminus was absent in native GIP.
After 7 days, the incubated medium was collected, and ColA1 in the medium was quantified using a collagen assay kit (Biocolor) according to the manufacturer's instructions.
Statistical analysis was performed by one-way ANOVA to compare between the control group and the test groups.

[3] = biological target: human GLP-1 receptor (human, UniProt P43220 24-463); assay: cell-based or functional assay
[4] = biological target: T1, human GIP receptor; assay: cell-based or functional assay
[5] = biological target: human GCG receptor (human, UniProt P47871 26-477); assay: cell-based or functional assay
human GCG receptor, sequence (P47871 26-477): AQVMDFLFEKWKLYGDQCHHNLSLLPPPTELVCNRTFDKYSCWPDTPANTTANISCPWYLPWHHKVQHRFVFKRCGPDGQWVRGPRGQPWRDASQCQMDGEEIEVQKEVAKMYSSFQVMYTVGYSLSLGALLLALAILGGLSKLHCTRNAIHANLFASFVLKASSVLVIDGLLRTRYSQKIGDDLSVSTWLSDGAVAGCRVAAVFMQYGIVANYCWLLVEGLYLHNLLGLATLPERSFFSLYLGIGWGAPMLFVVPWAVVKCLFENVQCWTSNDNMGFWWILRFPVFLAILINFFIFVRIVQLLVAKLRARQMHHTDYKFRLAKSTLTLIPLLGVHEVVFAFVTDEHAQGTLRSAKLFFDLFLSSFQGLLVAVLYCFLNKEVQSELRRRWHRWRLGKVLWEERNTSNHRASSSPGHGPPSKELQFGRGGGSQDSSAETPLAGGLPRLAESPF

Molecule	cell viability increased by the long-acting conjugate of SEQ ID NO: 42 [1]	effect of the long-acting conjugate of SEQ ID NO: 42 on the expression of ColA1 protein [2]	In vitro activity (%) compared with native peptide, vs GLP-1 [3] [%]	In vitro activity (%) compared with native peptide, vs GIP [4] [%]	In vitro activity (%) compared with native peptide, vs Glucagon [5] [%]
GIP 3-30 (EGTFISDYSIAMDKIHQQDFVNWLLAQK; Gastric inhibitory polypeptide; UniProt P09681 54-81, looked up, fragment) [GIP inhibitor, GIP 3-30, in which the N-terminus was absent in native GIP, reference compound]	reduced	reduced	–	–	–
[Acetyl(2-(4-imidazolyl))]GQGTFTSDLSIQYDSEHQRDFIEWLKDTGPSSGAPPPSHG (not fully specified) [triple agonist of SEQ ID NO: 19]	–	–	< 0.1	< 0.1	< 0.1
Y[Aib]QGTFTSDYSKYLDECRAKEFVQWLLDHHPSSGQPPPS (bridge 16-20) [triple agonist of SEQ ID NO: 21]	–	–	17.8	22.7	267
Y[Aib]QGTFTSDYSKCLDEKRAKEFVQWLLDHHPSSGQPPPS (bridge 16-20) [triple agonist of SEQ ID NO: 22]	–	–	20.1	59.7	140
H[Aib]QGTFTSDCSKYLDERAAQDFVQWLLDGGPSSGAPPPS (not fully specified) [triple agonist of SEQ ID NO: 25]	–	–	82.6	< 0.1	0.1
H[Aib]QGTFTSDYSKYLDERACQDFVQWLLDQGGPSSGAPPPS (not fully specified) [triple agonist of SEQ ID NO: 27]	–	–	83.1	0.9	0.8
H[Aib]QGTFTSDVSSYLDGQAQKEFIAWLVKGC (not fully specified) [triple agonist of SEQ ID NO: 2]	–	–	5.9	< 0.1	< 0.1
H[Aib]QGTFTSDVSSYLLGQAAKQFIAWLVKGGGPSSGAPPPSC (not fully specified) [triple agonist of SEQ ID NO: 3]	–	–	1.8	< 0.1	< 0.1
H[Aib]QGTFTSDYSIAMDEIHQKDFVNWLLAQKC (bridge 16-20; not fully specified) [triple agonist of SEQ ID NO: 33]	–	–	24.5	10.4	< 0.1
[Acetyl(2-(4-imidazolyl))]GQGTFTSDLSKQMDSERAREFIEWLKNTGPSSGAPPPSHG (not fully specified) [triple agonist of SEQ ID NO: 18]	–	–	< 0.1	< 0.1	< 0.1
[Acetyl(2-(4-imidazolyl))]GEGTFISDYSIQLDEIAVQDFVEWLLAQKPSSGAPPPSHG [triple agonist of SEQ ID NO: 13]	–	–	< 0.1	< 0.1	< 0.1
H[Aib]QGTFTSDYSKYLDEKRAQEFVCWLLAQKGKKNDWKHNIT (not fully specified) [triple agonist of SEQ ID NO: 28]	–	–	17.2	< 0.1	1.6
[Acetyl(2-(4-imidazolyl))]GQGTFTSDYSIQLDEIAVRDFVEWLKNGGPSSGAPPPSHG (not fully specified) [triple agonist of SEQ ID NO: 14]	–	–	28	< 0.1	< 0.1
[Acetyl(2-(4-imidazolyl))]GQGTFTSDLSKQMDEERAREFIEWLLAQKPSSGAPPPSHG (not fully specified) [triple agonist of SEQ ID NO: 17]	–	–	0.2	< 0.1	< 0.1
[Acetyl(2-(4-imidazolyl))]GQGTFTSDLSKQMDSEAQQLFIEWLKNGGPSSGAPPPSHG (not fully specified) [triple agonist of SEQ ID NO: 16]	–	–	2.1	< 0.1	< 0.1
Y[Aib]QGTFTSDYSKYLDECRAKEFVQWLKNGGPSSGAPPPS (bridge 16-20) [triple agonist of SEQ ID NO: 24]	–	–	41.2	< 0.1	9.3
H[Aib]QGTFTSDYSKYLDEKAAKEFVQWLLNTC (bridge 16-20; not fully specified) [triple agonist of SEQ ID NO: 29]	–	–	38.5	< 0.1	6
H[Aib]QGTFTSDYSKYLDEKACKEFVQWLLAQ (bridge 16-20) [triple agonist of SEQ ID NO: 31]	–	–	135	2.4	2.2
H[Aib]QGTFTSDYSKYLDEKACKDFVQWLLDGGPSSGAPPPS (bridge 16-20; not fully specified) [triple agonist of SEQ ID NO: 32]	–	–	151	8.8	1.7
Y[Aib]QGTFTSDYSKYLDECRAKEFVQWLLAQKGKKNDWKHNIT (bridge 16-20; not fully specified) [triple agonist of SEQ ID NO: 23]	–	–	4.01	< 0.1	9.3
H[Aib]QGTFTSDCSKYLDSRAAQDFVQWLLDGGPSSGAPPPS (not fully specified) [triple agonist of SEQ ID NO: 26]	–	–	64.5	< 0.1	0.2
[Acetyl(2-(4-imidazolyl))]GQGTFTSDLSIQYEEEAQQDFVEWLKDTGPSSGAPPPSHG (not fully specified) [triple agonist of SEQ ID NO: 20]	–	–	< 0.1	< 0.1	< 0.1
